Test results: US20180215825A1 (BEIGENE, published 2018)

T1: FcγRIIAH131 extracellular domain, His tag (human, UniProt P12318 34-217)
T1 construct: extracellular domain
T1 sequence (looked up): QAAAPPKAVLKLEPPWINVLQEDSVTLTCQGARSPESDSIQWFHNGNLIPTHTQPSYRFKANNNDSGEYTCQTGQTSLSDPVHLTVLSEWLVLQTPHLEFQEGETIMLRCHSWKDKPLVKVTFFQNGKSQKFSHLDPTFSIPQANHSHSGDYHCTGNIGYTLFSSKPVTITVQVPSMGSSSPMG

T2: FcγRIIAR131 extracellular domain, His tag (human, UniProt P12318 34-217)
T2 construct: extracellular domain
T2 sequence (looked up): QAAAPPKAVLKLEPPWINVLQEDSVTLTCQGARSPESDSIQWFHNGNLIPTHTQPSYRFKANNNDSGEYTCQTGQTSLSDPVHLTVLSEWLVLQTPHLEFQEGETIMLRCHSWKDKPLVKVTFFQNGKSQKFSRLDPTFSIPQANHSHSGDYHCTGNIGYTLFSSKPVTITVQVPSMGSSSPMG


How the values were obtained:
[1] = target: T3, human PD-L1-ECD/His (human, UniProt Q9NZQ7 19-238); experiment: ELISA on coated human PD-L1/His, anti-human Fc-HRP; x-axis printed as 'Ag concentration', mAb concentration according to paragraph 44 [A]
T3 construct: Expressed in 293-F cells; also called PD-L1/His; human PD-L1/His
Experimental: The monkey PD-L1/His and murine PD-L1/His were expressed and purified in a similar way to the human PD-L1/His as described earlier. […] The synthesized full length mAb was named as Y1-IgG1mc. The ELISA assay was performed essentially in the same way as described in the previous section. Briefly, 200 ng of PD-L1 protein was coated on each well of Nunc MaxiSorp ELISA plate (Cat. No. 442404, Nunc, Thermo Fisher). After washing and blocking, indicated concentrations of anti-PD-L1 mAbs were added and incubated at room temperature for 1 hour. After washing, the bound anti-PD-L1 mAbs were detected using a HRP-conjugated goat anti-human Fc antibody (Cat. No. A0170, Sigma).

[2] = target: human PD-L1, full length, expressed on cells (human, UniProt Q9NZQ7 19-290); experiment: cell-based or functional assay
[3] = target: T1, FcγRIIAH131 extracellular domain, His …; experiment: ELISA, FcγR-His coated, preformed immune complex; normalized to hu333-4A2-IgG1wt
Experimental: (§1) The extracellular domains of FcγRs were fused to C-terminal His tags as described in previous sections. Recombinant proteins were expressed in 293-F cells by transient transfection and purified using Ni-Sepharose column followed by gel filtration column as described. 2-5 μg/mL of FcγRs were coated on Nunc MaxiSorp ELISA plates (Cat. No. 442404, Nunc, Thermo Fisher) except FcγRIIB and FcγRIIIB, Ni-chelate plates were used (Cat. No. 15242, Pierce, Thermo Fisher). After washing and blocking of the wells, a preformed immune-complex was added to each well and incubated at room temperature for 1-2 hours. […] After washing the plate four times, binding signals were detected by chemiluminescence using Immobilon Chemiluminescence Substrate A/B (Cat. No. WBKLS0500, Millipore).

[4] = target: T4, FcγRIIIAF158 extracellular domain, His tag (human, UniProt P08637 17-208); experiment: as above
T4 construct: extracellular domain
Experimental: as §1

[5] = target: T2, FcγRIIAR131 extracellular domain, His …; experiment: as above
Experimental: as §1

[6] = target: T5, FcγRI extracellular domain, His tag (human, UniProt P12314 16-292); experiment: as above
T5 construct: extracellular domain
Experimental: as §1

[7] = target: T6, FcγRIIIAV158 extracellular domain, His tag (human, UniProt P08637 17-208); experiment: as above
T6 construct: extracellular domain; also called FcγRIIIAV58
Experimental: as §1

[8] = target: T1, FcγRIIAH131 extracellular domain, His …; experiment: ELISA, FcγR-His coated, preformed immune complex of the mAb
Experimental: as §1

[9] = target: T4, FcγRIIIAF158 extracellular domain, His …; experiment: as above
Experimental: as §1

[10] = target: T2, FcγRIIAR131 extracellular domain, His …; experiment: as above
Experimental: as §1

[11] = target: T5, FcγRI extracellular domain, His tag; experiment: as above
Experimental: as §1

[12] = target: T6, FcγRIIIAV158 extracellular domain, His …; experiment: as above
Experimental: as §1

Sequence of human PD-L1, full length, expressed on cells (Q9NZQ7 19-290 limits assumed): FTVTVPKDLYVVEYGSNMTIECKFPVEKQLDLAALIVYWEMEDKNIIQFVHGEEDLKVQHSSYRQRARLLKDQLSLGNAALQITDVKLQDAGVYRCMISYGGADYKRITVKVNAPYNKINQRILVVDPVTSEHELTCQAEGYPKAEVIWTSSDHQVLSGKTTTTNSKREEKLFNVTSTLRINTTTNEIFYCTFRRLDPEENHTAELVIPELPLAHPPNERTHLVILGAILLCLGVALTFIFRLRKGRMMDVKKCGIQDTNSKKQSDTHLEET
T3 sequence (Q9NZQ7 19-238): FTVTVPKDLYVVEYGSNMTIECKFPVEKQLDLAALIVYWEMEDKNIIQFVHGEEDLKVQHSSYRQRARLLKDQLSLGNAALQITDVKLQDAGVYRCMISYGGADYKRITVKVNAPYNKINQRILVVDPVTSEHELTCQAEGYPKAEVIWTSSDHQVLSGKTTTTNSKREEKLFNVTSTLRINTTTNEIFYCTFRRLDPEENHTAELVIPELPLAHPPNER
T5 sequence (P12314 16-292): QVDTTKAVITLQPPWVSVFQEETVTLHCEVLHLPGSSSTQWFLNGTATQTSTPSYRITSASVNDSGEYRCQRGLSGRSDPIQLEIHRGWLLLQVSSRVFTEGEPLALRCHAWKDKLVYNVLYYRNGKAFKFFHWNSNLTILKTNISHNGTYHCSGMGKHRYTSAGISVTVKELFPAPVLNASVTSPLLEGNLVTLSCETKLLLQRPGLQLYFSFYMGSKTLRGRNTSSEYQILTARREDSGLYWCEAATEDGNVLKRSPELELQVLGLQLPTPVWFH
T6 sequence (P08637 17-208 F176V limits assumed): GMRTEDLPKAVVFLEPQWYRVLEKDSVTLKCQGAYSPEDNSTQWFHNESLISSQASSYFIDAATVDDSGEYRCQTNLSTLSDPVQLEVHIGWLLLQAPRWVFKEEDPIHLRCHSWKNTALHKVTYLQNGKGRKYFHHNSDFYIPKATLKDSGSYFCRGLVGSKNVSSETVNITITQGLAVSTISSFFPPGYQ
T4 sequence (P08637 17-208): as the sequence (P08637 17-208 F176V limits assumed) above, with V160F counted along it

Binder	EC50 (read off the curve) [1] [µg/mL]	IL-2 release in HuT78/P3Z: IC50 [2] [µg/mL]	IL-2 release in HuT78/P3Z: Max inhibition [2] [%]	IL-2 release in HuT78/PD-1: EC50 [2] [µg/mL]	IL-2 release in HuT78/PD-1: Top line [2] [pg/mL]	Relative binding [3] [%]	Relative binding [4] [%]	Relative binding [5] [%]	Relative binding [6] [%]	Relative binding [7] [%]	Chemiluminescence [8]	Chemiluminescence [9]	Chemiluminescence [10]	Chemiluminescence [11]	Chemiluminescence [12]
hu333-4B2-IgG1mc (antibody) heavy: EVQLVESGGGLVQPGGSLRLSCAVSGFSLTSYGVHWVRQAPGKGLEWVAVIWAGGSTNYADSVKGRFTISKDTSKNTVYLQMNSLRAEDTAVYYCAKPYGTSAMDYWGQGTLVTVSSASTKGPSVFPLAPSSKSTSGGTAALGCLVKDYFPEPVTVSWNSGALTSGVHTFPAVLQSSGLYSLSSVVTVPSSSLGTQTYICNVNHKPSNTKVDKKVEPKSCDKTHTCPPCPAPPAAAPSVFLFPPKPKDTLMISRTPEVTCVVVDVSHEDPEVKFNWYVDGVEVHNAKTKPREEQYNSTYRVVSVLTVLHQDWLNGKEYKCKVSNKALAAPIEKTISKAKGQPREPQVYTLPPSRDELTKNQVSLTCLVKGFYPSDIAVEWESNGQPENNYKTTPPVLDSDGSFFLYSKLTVDKSRWQQGNVFSCSVMHEALHNHYTQKSLSLSPGK light: DIQMTQSPSSLSASVGDRVTITCKASQDVGIVVAWYQQKPGKAPKLLIYWASIRHTGVPSRFSGSGSGTEFTLTISSLQPDDFATYYCQQYSNYPLYTFGQGTKVEIKRTVAAPSVFIFPPSDEQLKSGTASVVCLLNNFYPREAKVQWKVDNALQSGNSQESVTEQDSKDSTYSLSSTLTLSKADYEKHKVYACEVTHQGLSSPVTKSFNRGEC	~0.03	0.039	99	0.084	300	–	–	–	–	–	–	–	–	–	–
hu333-4A2-IgG1mc (antibody) heavy: EVQLVESGGGLVQPGGSLRLSCAVSGFSLTSYGVHWVRQAPGKGLEWVAVIWAGGSTNYVDSVKGRFTISKDNAKNTVYLQMNSLRAEDTAVYYCAKPYGTSAMDYWGQGTLVTVSSASTKGPSVFPLAPSSKSTSGGTAALGCLVKDYFPEPVTVSWNSGALTSGVHTFPAVLQSSGLYSLSSVVTVPSSSLGTQTYICNVNHKPSNTKVDKKVEPKSCDKTHTCPPCPAPPAAAPSVFLFPPKPKDTLMISRTPEVTCVVVDVSHEDPEVKFNWYVDGVEVHNAKTKPREEQYNSTYRVVSVLTVLHQDWLNGKEYKCKVSNKALAAPIEKTISKAKGQPREPQVYTLPPSRDELTKNQVSLTCLVKGFYPSDIAVEWESNGQPENNYKTTPPVLDSDGSFFLYSKLTVDKSRWQQGNVFSCSVMHEALHNHYTQKSLSLSPGK light: DIQMTQSPSSLSASVGDRVTITCKASQDVGIVVAWYQQKPGKAPKLLIYWASIRHTGVPSRFSGSGSGTEFTLTISSLQPDDFATYYCQQYSNYPLYTFGQGTKVEIKRTVAAPSVFIFPPSDEQLKSGTASVVCLLNNFYPREAKVQWKVDNALQSGNSQESVTEQDSKDSTYSLSSTLTLSKADYEKHKVYACEVTHQGLSSPVTKSFNRGEC	~0.03	0.045	99	0.087	299	–	–	–	–	–	–	–	–	–	–

Continued, values first:

EC50 (read off the curve) [1] [µg/mL]	IL-2 release in HuT78/P3Z: IC50 [2] [µg/mL]	IL-2 release in HuT78/P3Z: Max inhibition [2] [%]	IL-2 release in HuT78/PD-1: EC50 [2] [µg/mL]	IL-2 release in HuT78/PD-1: Top line [2] [pg/mL]	Relative binding [3] [%]	Relative binding [4] [%]	Relative binding [5] [%]	Relative binding [6] [%]	Relative binding [7] [%]	Chemiluminescence [8]	Chemiluminescence [9]	Chemiluminescence [10]	Chemiluminescence [11]	Chemiluminescence [12]	Binder
~0.03	0.037	99	0.075	287	–	–	–	–	–	–	–	–	–	–	hu333-4B2-IgG1mf (antibody) heavy: EVQLVESGGGLVQPGGSLRLSCAVSGFSLTSYGVHWVRQAPGKGLEWVAVIWAGGSTNYADSVKGRFTISKDTSKNTVYLQMNSLRAEDTAVYYCAKPYGTSAMDYWGQGTLVTVSSASTKGPSVFPLAPSSKSTSGGTAALGCLVKDYFPEPVTVSWNSGALTSGVHTFPAVLQSSGLYSLSSVVTVPSSSLGTQTYICNVNHKPSNTKVDKKVEPKSCDKTHTCPPCPAPPAAGPSVFLFPPKPKDTLMISRTPEVTCVVVDVSHEDPEVKFNWYVDGVEVHNAKTKPREEQYNSTYRVVSVLTVLHQDWLNGKEYKCKVSNKALAAPIEKTISKAKGQPREPQVYTLPPSRDELTKNQVSLTCLVKGFYPSDIAVEWESNGQPENNYKTTPPVLDSDGSFFLYSKLTVDKSRWQQGNVFSCSVMHEALHNHYTQKSLSLSPGK light: DIQMTQSPSSLSASVGDRVTITCKASQDVGIVVAWYQQKPGKAPKLLIYWASIRHTGVPSRFSGSGSGTEFTLTISSLQPDDFATYYCQQYSNYPLYTFGQGTKVEIKRTVAAPSVFIFPPSDEQLKSGTASVVCLLNNFYPREAKVQWKVDNALQSGNSQESVTEQDSKDSTYSLSSTLTLSKADYEKHKVYACEVTHQGLSSPVTKSFNRGEC
–	–	–	–	–	100	100	100	100	100	54600	36400	50200	42700	57800	hu333-4A2-IgG1wt (antibody, light chain constant region (kappa) not tied to an entry for this form) heavy: not shown VL: DIQMTQSPSSLSASVGDRVTITCKASQDVGIVVAWYQQKPGKAPKLLIYWASIRHTGVPSRFSGSGSGTEFTLTISSLQPDDFATYYCQQYSNYPLYTFGQGTKVEIK
